What all share (assay): Epitope binning, chimeric TF construct mapping (live cell staining assay)
Common to all, as to type: binding

The target of assay [1] is T1, chimeric human-rat TF constructs expressed on HEK293 cells (Homo sapiens, UniProt P13726, I184G/K181N/T186I/W190R/Y188T).
T1 construct: expressed in transfected cells; host or cells: HEK293
As to conditions: construct h146-158_r (5); human segment replaced by rat segment. As to the method: (§1) To establish binding of the anti-human TF antibodies to the various TF constructs, HEK293 cells were transfected with a DNA plasmid that co-expresses the TF construct and a green fluorescent protein marker. For a subset of the antibodies, an antibody titration (a 12-point 1:3 dilution series starting at 250 nM) was evaluated on select TF constructs (See international PCT application PCT/US2019/012427 and U.S. utility application Ser. No. 16/959,652, incorporated herein by reference in their entirety). […] Two days after transfection, cells were collected from the tissue culture plate, stained with 15 μg/ml of the indicated anti-TF antibody, washed, stained with anti-human IgG-Fc Alexa Fluor 647 polyclonal antibody, washed, and stained with the viability dye 4′,6-Diamidino-2-Phenylindole, Dihydrochloride. Upon acquisition of 80,000 live events on a flow cytometer, live cells marked with the fluorescent marker were analyzed for the degree of staining by the anti-TF antibody. […] As used herein, the term “live cell staining assay” refers to the antibody binding assay used in this example.
(§2) When “Percentage antibody binding to TF construct relative to hTF” in Tables 51 and 52 was less than 50%, the antibody was considered a non-binder (0) in Tables 53 and 54.

Assay [2] addresses T2, chimeric human-rat TF constructs expressed on HEK293 cells (Homo sapiens, UniProt P13726, K181N).
T2 construct: expressed in transfected cells; host or cells: HEK293
As to the method:
as §1, §2

The target in assay [3] is T3, chimeric human-rat TF constructs expressed on HEK293 cells (Homo sapiens, UniProt P13726, A200N/K201T/N203H).
T3 construct: expressed in transfected cells; host or cells: HEK293
Particulars: construct h167-174_r (3); human segment replaced by rat segment. Here is the method:
as §1, §2

In assay [4] the target is T4, chimeric human-rat TF constructs expressed on HEK293 cells (Homo sapiens, UniProt P13726, P226F).
T4 construct: expressed in transfected cells; host or cells: HEK293
As to conditions: construct h190-219_r (16); human segment replaced by rat segment. Here is the method: as §1, §2

Assay [5] has as its target T5, chimeric human-rat TF constructs expressed on HEK293 cells (Homo sapiens, UniProt P13726, A112W/A121H/D76N/DEL115-116/DUP123-123/E127T/E131K/E137D/E58Q/F108L/F82T/G113R/G75R/INS118HGKETLF/K100N/K47I/K73R/L104E/L125P/L136R/N139K/N50D/P130R/Q101W/Q64Y/S120T/S129A/S79Y/T133L/T72D/V62T/V65T/Y110V/Y126F/Y83G).
T5 construct: expressed in transfected cells; host or cells: HEK293
As to conditions: construct h1-107_r (52); human segment replaced by rat segment. Here is the method:
as §1, §2

Assay [6] concerns chimeric human-rat TF constructs expressed on HEK293 cells. Here is the method: as §1, §2
Assay [7] addresses T6, chimeric human-rat TF constructs expressed on HEK293 cells (Homo sapiens, UniProt P13726, N170G/R168K).
T6 construct: expressed in transfected cells; host or cells: HEK293
Particulars: construct h133-139_r (2); human segment replaced by rat segment. As to the method: as §1, §2

Assay [8] deals with T7, chimeric human-rat TF constructs expressed on HEK293 cells (Homo sapiens, UniProt P13726, K100N).
T7 construct: expressed in transfected cells; host or cells: HEK293
As to conditions: construct hTF_K68N. Here is the method: as §1, §2

The target of assay [9] is T8, chimeric human-rat TF constructs expressed on HEK293 cells (Homo sapiens, UniProt P13726, E127T/E131K/E137D/L136R/N139K/P130R/S129A/T133L/Y126F).
T8 construct: expressed in transfected cells; host or cells: HEK293
Particulars: construct h94-107_r (9); human segment replaced by rat segment. As to the method:
as §1, §2

Assay [10] deals with T9, chimeric human-rat TF constructs expressed on HEK293 cells (Homo sapiens, UniProt P13726, D177Q/S174T).
T9 construct: expressed in transfected cells; host or cells: HEK293
Particulars: construct h140-145_r (2); human segment replaced by rat segment. Here is the method: as §1, §2

Assay [11] concerns the target T10, chimeric human-rat TF constructs expressed on HEK293 cells (Homo sapiens, UniProt P13726, N203H/T229K).
T10 construct: expressed in transfected cells; host or cells: HEK293
As to conditions: construct hTF_N171H_T197K. As to the method: as §1, §2

Assay [12] has as its target T11, chimeric human-rat TF constructs expressed on HEK293 cells (Homo sapiens, UniProt P13726, K197R/S192D/S195T).
T11 construct: expressed in transfected cells; host or cells: HEK293
Particulars: construct h159-166_r (3); human segment replaced by rat segment. Here is the method: as §1, §2

Assay [13] addresses T12, chimeric human-rat TF constructs expressed on HEK293 cells (Homo sapiens, UniProt P13726, A112W/A121H/DEL115-116/DUP123-123/E127T/E131K/E137D/G113R/INS118HGKETLF/L125P/L136R/N139K/P130R/S120T/S129A/T133L/Y110V/Y126F).
T12 construct: expressed in transfected cells; host or cells: HEK293
Particulars: construct h78-107_r.v2 (27); human segment replaced by rat segment. As to the method: as §1, §2

The target of assay [14] is T13, chimeric human-rat TF constructs expressed on HEK293 cells (Homo sapiens, UniProt P13726, D76N/F108L/F82T/G75R/K100N/K73R/L104E/Q101W/S79Y/T72D/Y83G).
T13 construct: expressed in transfected cells; host or cells: HEK293
As to conditions: construct h39-77_r (11); human segment replaced by rat segment. Here is the method: as §1, §2

Assay [15] concerns the target T14, chimeric human-rat TF constructs expressed on HEK293 cells (Homo sapiens, UniProt P13726).
T14 construct: expressed in transfected cells; host or cells: HEK293
As to conditions: construct hTF. As to the method:
as §1, §2

Assay [16] has as its target T15, chimeric human-rat TF constructs expressed on HEK293 cells (Homo sapiens, UniProt P13726, E58Q/K47I/N50D/Q64Y/V62T/V65T).
T15 construct: expressed in transfected cells; host or cells: HEK293
Particulars: construct h1-38_r (14); human segment replaced by rat segment. As to the method: as §1, §2

In the case of TF-011, the “Antibody binding to TF construct” value in assay [1] was 1 (between 50% and 150%, the antibody was considered a binder (1)); in assay [2] (construct h146-151_r (1), human segment replaced by rat segment), 1 (between 50% and 150%, the antibody was considered a binder (1)); in assay [2] (construct hTF_K149N) it was 1 (between 50% and 150%, the antibody was considered a binder (1)); in assay [3] it was 1 (between 50% and 150%, the antibody was considered a binder (1)); in assay [4] it was 1 (between 50% and 150%, the antibody was considered a binder (1)); in assay [5], 0 (less than 50%, the antibody was considered a non-binder (0)). Further, the “Antibody binding to TF construct” value in assay [6] (Table 53, construct rTF) is 0 (less than 50%, the antibody was considered a non-binder (0)); in [6] (Table 54, construct rTF), 0 (less than 50%, the antibody was considered a non-binder (0)); in assay [6] (construct h78-107_r (21), human segment replaced by rat segment) it was 0 (less than 50%, the antibody was considered a non-binder (0)); in [6] (construct h108-219_r (46), human segment replaced by rat segment) it was 1 (between 50% and 150%, the antibody was considered a binder (1)); in [6] (construct h159-219_r (27), human segment replaced by rat segment), 1 (between 50% and 150%, the antibody was considered a binder (1)); in assay [6] (construct r141-194_h (rat amino acid segment replaced by human segment, 20 amino acid changes)), 0 (less than 50%, the antibody was considered a non-binder (0)). Also, the “Antibody binding to TF construct” value in assay [7] was 1 (between 50% and 150%, the antibody was considered a binder (1)); in [8], 1 (between 50% and 150%, the antibody was considered a binder (1)); in [9], 0 (less than 50%, the antibody was considered a non-binder (0)); in assay [10], 1 (between 50% and 150%, the antibody was considered a binder (1)); in [11], 1 (between 50% and 150%, the antibody was considered a binder (1)); in assay [12], 1 (between 50% and 150%, the antibody was considered a binder (1)). The “Antibody binding to TF construct” value is 0 (less than 50%, the antibody was considered a non-binder (0)) in assay [13]; 0 (less than 50%, the antibody was considered a non-binder (0)) in assay [14]; 1 (between 50% and 150%, the antibody was considered a binder (1)) in assay [15] (Table 53); 1 (between 50% and 150%, the antibody was considered a binder (1)) in [15] (Table 54); 1 (between 50% and 150%, the antibody was considered a binder (1)) in assay [16]. Moreover, the “Constructs not bound by antibody” value in assay [6] (chimeric human-rat TF constructs) is on record as “rTF, h1-107_r, h1-77_r, h39-77_r, h78-107_r, h78-107_r.v2, h94-107_r”.

For the origin of these results see patent US20240166765A1, “INFLAMMATORY DISEASE TREATMENT USING ANTI-TISSUE FACTOR ANTIBODIES” (Iconic Therapeutics LLC, priority 2020, published 2024).
